Measured values from patent US20170320947A1 (published 2017).

What was measured:
Cyno PSMA = target: T1, Cyno PSMA; assay: BLI (Octet)
T1 chain: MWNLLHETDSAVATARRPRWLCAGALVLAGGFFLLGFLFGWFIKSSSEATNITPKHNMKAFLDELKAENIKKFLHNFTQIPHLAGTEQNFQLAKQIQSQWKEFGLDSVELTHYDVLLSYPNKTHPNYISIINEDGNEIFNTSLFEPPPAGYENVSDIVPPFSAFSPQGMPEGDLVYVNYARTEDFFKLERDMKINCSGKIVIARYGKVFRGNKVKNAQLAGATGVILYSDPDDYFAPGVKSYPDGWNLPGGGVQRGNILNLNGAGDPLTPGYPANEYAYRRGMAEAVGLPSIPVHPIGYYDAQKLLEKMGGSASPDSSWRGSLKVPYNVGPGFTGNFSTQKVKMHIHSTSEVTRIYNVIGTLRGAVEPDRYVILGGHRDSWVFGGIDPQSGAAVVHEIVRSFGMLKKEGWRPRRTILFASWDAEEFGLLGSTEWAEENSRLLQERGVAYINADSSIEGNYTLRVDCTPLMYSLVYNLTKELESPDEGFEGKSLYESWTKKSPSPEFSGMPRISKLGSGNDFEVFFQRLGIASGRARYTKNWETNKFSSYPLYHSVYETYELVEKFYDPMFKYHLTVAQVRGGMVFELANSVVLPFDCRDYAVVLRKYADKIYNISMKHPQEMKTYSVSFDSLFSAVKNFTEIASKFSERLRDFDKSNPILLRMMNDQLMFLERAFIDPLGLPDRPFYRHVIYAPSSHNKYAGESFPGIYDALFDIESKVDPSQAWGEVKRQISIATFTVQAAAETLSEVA

Human PSMA = assay: BLI (Octet)

Kd (Cyno PSMA): 0.2 nM
Kd (Human PSMA): 0.4 nM
B1: XENP14484 (bispecific antibody)
heavy: EVQLVQSGAEVKKPGASVKVSCKTSGYTFTEYTIHWVRQAPGQSLEWMGNINPNNGGTTYNQKFQGRVTITVDKSTSTAYMELSSLRSEDTAVYYCAAGWNFDYWGQGTLVTVSSASTKGPSVFPLAPSSKSTSGGTAALGCLVKDYFPEPVTVSWNSGALTSGVHTFPAVLQSSGLYSLSSVVTVPSSSLGTQTYICNVNHKPSDTKVDKKVEPKSCDKTHTCPPCPAPPVAGPSVFLFPPKPKDTLMISRTPEVTCVVVDVKHEDPEVKFNWYVDGVEVHNAKTKPREEEYNSTYRVVSVLTVLHQDWLNGKEYKCKVSNKALPAPIEKTISKAKGQPREPQVYTLPPSREEMTKNQVSLTCDVSGFYPSDIAVEWESDGQPENNYKTTPPVLDSDGSFFLYSKLTVDKSRWEQGDVFSCSVMHEALHNHYTQKSLSLSPGK
scFv-Fc: not shown
light: DIVMTQSPDSLAVSLGERATLSCRASQDVGTAVDWYQQKPDQSPKLLIYWASTRHTGVPDRFTGSGSGTDFTLTISSLQAEDVAVYFCQQYNSYPLTFGAGTKVEIKRTVAAPSVFIFPPSDEQLKSGTASVVCLLNNFYPREAKVQWKVDNALQSGNSQESVTEQDSKDSTYSLSSTLTLSKADYEKHKVYACEVTHQGLSSPVTKSFNRGEC
